{
  "source": "paper PMC6086657",
  "about": "“Structure of the human volume regulated anion channel” (eLife, 2018)",
  "proteins": {"B1": {"name": "human SWELL1 (LRRC8A) with a C-terminal FLAG-tag (SWELL1-GGG-FLAG) (natural protein, UniProt Q8IWT6 1-810, looked up)", "chain": "MIPVTELRYFADTQPAYRILKPWWDVFTDYISIVMLMIAVFGGTLQVTQDKMICLPCKWVTKDSCNDSFRGWAAPGPEPTYPNSTILPTPDTGPTGIKYDLDRHQYNYVDAVCYENRLHWFAKYFPYLVLLHTLIFLACSNFWFKFPRTSSKLEHFVSILLKCFDSPWTTRALSETVVEESDPKPAFSKMNGSMDKKSSTVSEDVEATVPMLQRTKSRIEQGIVDRSETGVLDKKEGEQAKALFEKVKKFRTHVEEGDIVYRLYMRQTIIKVIKFILIICYTVYYVHNIKFDVDCTVDIESLTGYRTYRCAHPLATLFKILASFYISLVIFYGLICMYTLWWMLRRSLKKYSFESIREESSYSDIPDVKNDFAFMLHLIDQYDPLYSKRFAVFLSEVSENKLRQLNLNNEWTLDKLRQRLTKNAQDKLELHLFMLSGIPDTVFDLVELEVLKLELIPDVTIPPSIAQLTGLKELWLYHTAAKIEAPALAFLRENLRALHIKFTDIKEIPLWIYSLKTLEELHLTGNLSAENNRYIVIDGLRELKRLKVLRLKSNLSKLPQVVTDVGVHLQKLSINNEGTKLIVLNSLKKMANLTELELIRCDLERIPHSIFSLHNLQEIDLKDNNLKTIEEIISFQHLHRLTCLKLWYNHIAYIPIQIGNLTNLERLYLNRNKIEKIPTQLFYCRKLRYLDLSHNNLTFLPADIGLLQNLQNLAITANRIETLPPELFQCRKLRALHLGNNVLQSLPSRVGELTNLTQIELRGNRLECLPVELGECPLLKRSGLVVEEDLFNTLPPEVKERLWRADKEQA", "notes": "SWELL1 (LRRC8A), human, UniProt Q8IWT6, cDNA Origene #RC208632; the abstract calls it full-length; the model holds residues 15-68, 94-174, 232-802 (inner subunit) and 15-68, 94-175, 214-802 (outer subunit); Homohexamer (trimer of dimers); The solubilization buffer held 2 mg/mL iodoacetamide; One endogenous SWELL1 allele remained intact in the expression cell line; also called SWELL1-FLAG; …"}},
  "target": "the molecule itself",
  "assay": "cryo-EM structure; SWELL1-FLAG homomer in 20 mM Tris pH 8, 150 mM NaCl, 0.05% digitonin, ~8 mg/mL on UltrAuFoil grids; C3 symmetry imposed; ~4 Å map",
  "data": [
    {"protein": "B1", "values": [
      {"measurement": "stoichiometry N", "result": 6}
    ]}
  ]
}
